Reference: patent publication US20040204561A1 (published 2004)
Ends that are not written are not given here. bbDTPA = DTPA chelating ligand bonded through a carbon of its ethylene backbone

Tests used:
[1] = target: the molecule itself; assay: self-association, observation of solutions
From the text: First, solutions of EP 1272L (FW=2,243 Da) were concentrated and purified by centrifugation in a filter device with a nominal molecular weight limit of 300,000 Da. The formation of high molecular weight aggregates allowed EP1272L to be retained by the filter device. […] Third, SEC-LS column retention and light scattering measurements of EP1272L were consistent with a large species having a mass distribution of 4×10⁶ to 13×10⁶ Da, and a hydrodynamic radius in the range of 155 nm to 210 nm.

[2] = target: T1, streptavidin (on magnetic beads) (UniProt P22629 37-163, limits assumed); assay: capture on streptavidin magnetic beads, gadolinium ICP
T1 construct: also called streptavidin beads; streptavidin-coated beads
T1 sequence (P22629 37-163 limits assumed): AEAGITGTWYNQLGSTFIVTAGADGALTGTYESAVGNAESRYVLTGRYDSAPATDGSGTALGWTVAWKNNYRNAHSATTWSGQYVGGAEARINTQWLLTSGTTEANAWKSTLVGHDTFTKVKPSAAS
Protocol: The three EP1595/EP1272 formulations, one EP1596/EP1272 formulation, and an EP1272 formulation were assayed for affinity to streptavidin magnetic beads. Each sample was diluted so as to maintain a constant ratio of biotinylated peptide and streptavidin binding sites in the assay. Solutions without biotin were treated as though they contained 0.5% EP1595. After several rinses the magnetic beads were digested in acid. The extent of capture was quantified by gadolinium ICP.

B1: EP1272L (peptide)
peptide: bbDTPA-GAEAEAKAKAEAEAKAK
modifications: also: bbDTPA complexed to Gd(III)
notes: also called EP1272L aggregates alone; EP1272 formulation
- binding result [1]: binds
- binding result [2]: binds
